Read-outs that look alike come from different tables or passages of the source.

The target in data set [1] is T1, POT1 Y36N;TPP1 (human;human, UniProt Q9NUX5;Q96AP0 1-634;3-248, Y36N|). The experiment in a line: EMSA.
Target sequence in this assay (Q96AP0 3-248, stated change not applied, one chain of several): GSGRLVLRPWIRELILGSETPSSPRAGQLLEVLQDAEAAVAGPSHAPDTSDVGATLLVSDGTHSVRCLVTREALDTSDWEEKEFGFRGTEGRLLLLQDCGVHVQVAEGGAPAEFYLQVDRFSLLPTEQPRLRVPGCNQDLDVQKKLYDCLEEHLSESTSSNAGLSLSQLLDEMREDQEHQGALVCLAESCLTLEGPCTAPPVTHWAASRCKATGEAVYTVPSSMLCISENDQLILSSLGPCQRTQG
The target of data set [2] is T2, POT1;TPP1 (human;human, UniProt Q9NUX5;Q96AP0 1-634;3-248, |). The experiment in a line: EMSA.
Data set [3] concerns the target T3, POT1 H266L;TPP1 (human;human, UniProt Q9NUX5;Q96AP0 1-634;3-248, H266L|). The experiment in a line: stopped-flow CD.
Target sequence in this assay (Q96AP0 3-248, stated change not applied, one chain of several): as above
Data set [4] concerns the target T4, POT1-N (human, UniProt Q9NUX5 1-340).
T4 sequence: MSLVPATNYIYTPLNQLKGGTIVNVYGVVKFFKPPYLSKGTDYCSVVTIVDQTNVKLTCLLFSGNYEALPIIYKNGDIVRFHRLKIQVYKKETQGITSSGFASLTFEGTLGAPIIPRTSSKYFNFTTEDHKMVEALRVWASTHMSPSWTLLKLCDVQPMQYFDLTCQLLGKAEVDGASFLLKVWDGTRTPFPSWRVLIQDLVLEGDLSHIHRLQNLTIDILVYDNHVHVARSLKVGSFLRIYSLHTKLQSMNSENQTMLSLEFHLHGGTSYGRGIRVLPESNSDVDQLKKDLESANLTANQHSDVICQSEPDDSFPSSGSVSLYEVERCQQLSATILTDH
In words: hydroxyl radical footprinting MS.

Data set [5] concerns the target T3, POT1 H266L;TPP1. The experiment in a line: EMSA.
Target sequence in this assay (Q9NUX5 whole entry H266L, chain 1 of 2): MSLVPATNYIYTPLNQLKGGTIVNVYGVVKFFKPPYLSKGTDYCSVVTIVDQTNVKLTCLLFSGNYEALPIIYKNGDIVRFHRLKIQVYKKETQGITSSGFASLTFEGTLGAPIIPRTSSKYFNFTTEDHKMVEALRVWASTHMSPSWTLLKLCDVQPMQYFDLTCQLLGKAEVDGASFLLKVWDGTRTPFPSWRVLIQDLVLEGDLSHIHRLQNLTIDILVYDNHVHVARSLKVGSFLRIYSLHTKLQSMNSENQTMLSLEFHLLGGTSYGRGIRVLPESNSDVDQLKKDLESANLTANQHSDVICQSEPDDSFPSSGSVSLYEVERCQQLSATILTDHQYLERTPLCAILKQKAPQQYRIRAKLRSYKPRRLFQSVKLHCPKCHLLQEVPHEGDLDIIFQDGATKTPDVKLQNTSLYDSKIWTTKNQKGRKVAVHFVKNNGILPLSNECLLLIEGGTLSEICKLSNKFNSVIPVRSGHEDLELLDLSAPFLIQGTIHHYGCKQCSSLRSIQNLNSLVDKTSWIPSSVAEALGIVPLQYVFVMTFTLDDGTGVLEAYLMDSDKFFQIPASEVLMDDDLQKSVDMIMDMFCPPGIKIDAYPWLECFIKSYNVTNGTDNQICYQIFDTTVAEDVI
Target sequence in this assay (Q96AP0 3-248, chain 2 of 2): as the sequence (Q96AP0 3-248, stated change not applied, one chain of several) above
Data set [6] has as its target T2, POT1;TPP1. The experiment in a line: EMSA. The source holds these as a separate data set.
Data set [7] has as its target T1, POT1 Y36N;TPP1. In words: EMSA. This is another data set of the same source.
Target sequence in this assay (Q9NUX5 whole entry Y36N, chain 1 of 2): as the sequence (Q9NUX5 whole entry H266L, chain 1 of 2) above, with Y36N, L266H counted along it
Target sequence in this assay (Q96AP0 3-248, chain 2 of 2): as the sequence (Q96AP0 3-248, stated change not applied, one chain of several) above
The target of data set [8] is T4, POT1-N. In words: hydroxyl radical footprinting MS. This is another data set of the same source.

T2 sequence (Q96AP0 3-248, one chain of several): as the sequence (Q96AP0 3-248, stated change not applied, one chain of several) above

B1: hT72 (ssDNA)
DNA: GGTTAGGGTTAGGGTTAGGGTTAGGGTTAGGGTTAGGGTTAGGGTTAGGGTTAGGGTTAGGGTTAGGGTTAG
Take B1: the entries for the “apparent K (half saturation)” value in data set [1] and in data set [2] were 4.5 ± 0.4 nM and 6.9 ± 0.6 nM, respectively. For the same molecule, the binding result in data set [3] and in data set [4] was “binds” in each case.

B2: hT12 (ssDNA)
DNA: GGTTAGGGTTAG
B2: the Kd stood at 29.1 ± 9.3 nM in data set [5], 1 ± 0.5 nM in data set [6] and 2.2 ± 1.1 nM in data set [7]. Moreover, in data set [8], the binding result is “binds”.

Values taken from publication PMC6876245.
